Experimental data reported in IntAct's records for PubMed 17923090.

The substances below were run against stat1_human STAT1 (UniProt P42224).
Sequence of stat1_human STAT1 (P42224 whole entry): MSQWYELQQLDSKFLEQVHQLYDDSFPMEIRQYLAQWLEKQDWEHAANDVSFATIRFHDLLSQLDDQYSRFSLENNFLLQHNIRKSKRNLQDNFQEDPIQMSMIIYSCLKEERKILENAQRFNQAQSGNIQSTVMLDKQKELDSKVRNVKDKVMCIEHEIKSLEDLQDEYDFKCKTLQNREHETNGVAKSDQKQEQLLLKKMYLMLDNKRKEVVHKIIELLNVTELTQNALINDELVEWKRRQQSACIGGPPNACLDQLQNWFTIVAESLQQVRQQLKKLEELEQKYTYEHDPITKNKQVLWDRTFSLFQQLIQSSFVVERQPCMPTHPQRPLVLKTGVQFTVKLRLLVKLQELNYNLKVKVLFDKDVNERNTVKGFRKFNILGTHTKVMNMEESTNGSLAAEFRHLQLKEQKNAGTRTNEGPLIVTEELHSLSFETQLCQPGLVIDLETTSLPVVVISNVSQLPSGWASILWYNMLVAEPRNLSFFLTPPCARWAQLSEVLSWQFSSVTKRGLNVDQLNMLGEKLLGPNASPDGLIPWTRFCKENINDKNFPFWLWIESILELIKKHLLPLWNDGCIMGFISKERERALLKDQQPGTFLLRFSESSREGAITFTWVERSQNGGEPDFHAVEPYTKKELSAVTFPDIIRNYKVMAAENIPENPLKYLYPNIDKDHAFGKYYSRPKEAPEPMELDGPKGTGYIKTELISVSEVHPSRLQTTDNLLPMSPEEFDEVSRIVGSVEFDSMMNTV

| effect of a mutation on the interaction | Substance |
| --- | --- |
| decreasing interaction | Signal transducer and activator of transcription 2 (Homo sapiens), P52630 K384R |
| increasing interaction | Signal transducer and activator of transcription 2 (Homo sapiens), P52630 K390R |
| increasing interaction | Signal transducer and activator of transcription 2 (Homo sapiens), P52630 K415R |
| decreasing interaction | Signal transducer and activator of transcription 2 (Homo sapiens), P52630 K419R |
